This series concerns the molecule itself. The series can be described thus: SEC.

B1: FMNL1_(1–385) (domain or fragment, human, UniProt O95466 1-385, looked up)
chain: MGNAAGSAEQPAGPAAPPPKQPAPPKQPMPAAGELEERFNRALNCMNLPPDKVQLLSQYDNEKKWELICDQERFQVKNPPAAYIQKLKSYVDTGGVSRKVAADWMSNLGFKRRVQESTQVLRELETSLRTNHIGWVQEFLNEENRGLDVLLEYLAFAQCSVTYDMESTDNGASNSEKNKPLEQSVEDLSKGPPSSVPKSRHLTIKLTPAHSRKALRNSRIVSQKDDVHVCIMCLRAIMNYQSGFSLVMNHPACVNEIALSLNNKNPRTKALVLELLAAVCLVRGGHDIILAAFDNFKEVCGEQHRFEKLMEYFRNEDSNIDFMVACMQFINIVVHSVENMNFRVFLQYEFTHLGLDLYLERLRLTESDKLQVQIQAYLDNIFDVG
In the case of B1, the binding result was “binds”.
